Assay results taken from a protein production outcome set (Wang et al. 2014).

Assay: label from the status in PepcDB records

Sequence | protein production
MIEVIILAIALSMDAFAVSIGLGATKQQSKVAPLGIIVALYFGLFQGIMPIIGYLGGKGVLSWAESYTPWIAFLLLFLIGVKMIFDSFSEGIEEDISKITHRVLLILAIATSIDAMAAGFSLTLLPVNPLIACLIIASVTFIFSWLGVLVGTKGGTWLENKAEFVGGITLIVMAIKIIITS | failed
MIEYIIGVIGLLLASVQDFRSREIEDYIWIVLAVFGILFAIYSAITLSNYSILINSISGFVICFILGYMMFLSGIGGGDGKILIGLGALVPKFQMPIYTSLGTLLNLNYIPNFPIMVFINGIFFMVFLPFVILFRNILNGARPKTGKEVILMFFGEKMKVKVAKEQKRLIMGQNDKINFFPASDDEDFSKYGDEEEIWVTPQIPLIIPITLSYLVTPIIGDRILDLLIPF | failed
MIFEIIKIGSQPINFAYPIPLLSLLAFMLSGSGYNELIISYIFAFSFFTAANLWNHLNDAEDDLNAGRNYARFLIEHRKIVTEFVVAFYFVSFLLIFFISKSKEIALLLTGLSVVLTWLYSDKIFIGKIIRRFKEDYKTEVFTYILCSFSFPLSFWTIFSEISQVGVVFTLATGFTYLSGFFLKDLKDISADIKSGYRTLAVVLSPSTLLIISVMLFIASTFVVIFSSLLDVTPTSSLLVLTVYPPILFAIYKFHKEKWKITKNIISSLKIYTYSYLGFLIAFAIGCKL | failed
MIGDGIENSPLLTDLAFPYRLLGAGKESRECLFLLHGSGVDETTLVPLARRIAPTATLVAARGRIPQEDGFRWFERIDPTRFEQKSILAETAAFAAFTNEAAKRHGLNLDHATFLGYSNGANLVSSLMLLHPGIVRLAALLRPMPVLDHVPATDLAGIRTLIIAGAADETYGPFVPALVTLLSRHGAEVDARIIPSGHDIGDPDAAIVRQWLAGPIAIAQAD | not failed
MIGIVAAFEKVKIPEMGKSFGTGWLPPLPSLKDYTEESAQIPEMAEKLGIPTSRKETKTLELPVSIDFRNWCSPIEDQMDLGSCTAHAGVGVVEYFERRAFGKHIDGSRFFVYKTTRNLMGVKGDTGAWLRNTMGALALCGVPPEKYFPYTSRKTPGPDGEPTFDDEPSSFVYSLADNFEALNYFCHDPQGMNLPPEDVILSVKKYLAAGIPSMFGFYGFPSFKDTDVKGGIPFPGPDERSIWGHAVVAVGYDDNMKIRNTLSNKETTGAFLIRNSWGTAWGDKGYGWLPYEYALNKFALDFWSLISMKWVETGNFGLELESSRSRARETLSRDMPLPHALEHHHHHH | not failed
MIGPENCNSVSEPIAYVIILAGGRSSRMGYDKAQVMVDGRRLIDLCLESIASVHAHPIVVSGQDLQLTAAVTQVMEEPAFGGPVAGIAAGMRCCDTKAGLIGVIAVDAPRSGNYLNQLRRVVLTHPEVGVAHAVVEGYDQPLLAVWRYEALTQALHALGSPRNVAAKRLLRSATTPVIAVPVDSSARDYDTVAELSALGRVRLRLEHHHHHH | failed
MIGQFLITFREALEAAIIVAIIIAYLKRTDREEQIRDVWIGVGLSVLASVVLGAIILGLYGGIEEKELFEGIASYLAVIVLTSMIYWMATKGRNIRAEIERKVSKAINPLALVGFTFIVVFREGLETVLFLTPFAIQDLGGTLMGLVSGIIGALILAYLIYGVGMRINLRTFFYYSSILLVFVAAGLAGYGTHELIEWAEEEGMNLGFIEETAYNLGIPEDSVFHHKGVIGSIFAVLFGYSVKMEWGRVIVQFGYLIVTLYLVLRAYGQETPTAKAEK | failed
MIGVLSGFFVVWAIILVGMFVGRRNILGENARSVLSSLTFFVASPALLFETLSKAKLHDVFAAPLLVTAVGAVVTGLLFFLIAKFWLKRAMPEALMSSMSSSLANSANLGIPIAVFVLGDASYVAPLLIFQLAFFTPLYLMALDASTSSHRTTPLRFLLMIVKNPMIVGSALGLLVAGTGFHVPTLILEPIHLIGGAAIPAMLMSFGMSLNGSKPLRKASGRRVDTLLASGFKLIVHPLIAYLFARFALGMDGHALFAVVVTSALPTAQNVFVAANRYQAGITVAKDTVLITTIVAVPAMIAVALLLT | failed
MIHDLLLACRSHNPEQLGIKAFNETTVIDQFIHPCEREIFMDIIKIIKVYQEVEQFTHSSGRKSDTHGELPDSLHGYYLLNLAKGIEMALEEYYAEIGRLEKYCLGNERNSLSYVYNALYAKFPLLVFMRNLITEIHVLNLRGCVLLHNLHQQCEHGDIQLEKAIKIIMKPVKNAFFSSLAHWLLFGVIDDVHSEFFIKFTPTDAVDGSSFSKSATCSLLSAEKNPEDYIWQYEVNMSQLPGFFSIVLAEKVLFVGQTVLVFKMGRNVKVKNKTDPLAAKLAELDSDDIYQLWSGRESEFFKMVVDLSNEDTINVFRLEKVIIDIKNYVSARLSEIAVNEVDLERQMGLIKDFFLLGRGEFYLEFCSQMVGTMETYREERFKNVTRSFELAATVTGITDDLDKFSLICQRSTSEPDDTSDFNFLQGLSLKYEYEWPLNLLFSPTTIERYNNIFRFLLIIRTYQYEIQRVWAKQTWRAKSAKDVPPNNKIITLRNYLMFFLNNMQYYIQVDVLESQFGILMNVIKSRSDFEVIQRAHTVFLANVLSHCFLLNESETQLNVTGSQNRNPIYGTLLKLFGICEKFAHMTQTKDPSDDLEDEVDQLNESFGVQIASLIQLLVDVKSASCLGPLSQLLLRLDFNCWFSASHNTSA | failed
MIHDVDPTNDKYPAALRILHWVRALLTLGLIAAGWMMTVLADTVTEKFTLLYPWHKSFGVLVFLIVLAQLAIRAMSRLPGPAPLPAQERLLSQAVHVAMYALLLLVPLMGYAMSSSFTDSDGVFFFGIHLPELLPKDDDRFRLFQFLHKTLAYSLLALVILHVAGALKHRYFDKDRRTDVLPRII | failed
MIHFSINKNLFLQALNTTKRAISSKNAIPILSTVKIDVTNEGITLIGSNGQISIENFISQKNEDAGLLITSLGSILLEASFFINVVSSLPDVTLDFKEIEQNQIVLTSGKSEITLKGKDSEQYPRIQEISASTPLILETKLLKKIINETAFAASTQESRPILTGVHFVLSQHKELKTVATDSHRLSQKKLTLEKNSDDFDVVIPSRSLREFSAVFTDDIETVEIFFANNQILFRSENISFYTRLLEGNYPDTDRLIPTDFNTTITFNVVNLRQSMERARLLSSATQNGTVKLEIKDGVVSAHVHSPEVGKVNEEIDTDQVTGEDLTISFNPTYLIDSLKALNSEKVTISFISAVRPFTLVPADTDEDFMQLITPVRTN | not failed
MIHGFLCSTKSALPHPLDDPAFVTASACRLASRPFRFMPQSSRRQNRSGTLVFANWNYVLLLIGVALIVVGFTAMYLEGQYLGFISLYVSPVLIIGGYAEIIYALLWAPDEQSAAEEQ | failed
MIHYYKLFWINALNIKGRARRKEFWYPFLMNILINIMLEIIFFLLPIPAIIEDTVGWIVYILILVAMFTVTVRRFHDVGMTMLIPIIIFLIAVINDFSEFINSDIPTLDNSALTVIAVIFGVVYIVILIVSLAVCCTSGQKETNQYGVNPKAVE | failed
MIIAGLDVGTTKVTTVIGELAPDGVLDIIGEGTVPSQGLRRGVVVNLERTTEAIRQSLFQAERVAGVKVERVVVGVGGPHLKSVTSHGLAAIRRGHTIAEADVERAIEQAKAYPFEGELELLHALPLEFKVDGQEGIRDPVGMAGVRLEVDVHLIAAGRGPLANLRRAVEEAGLALDAVCVQALASGLAVLTPEEEEMTVLLLDIGGGTTDVAVFRGGRLAHSAVVPLGGDHVTHDIAQLLKIPFEEAERVKRKYGAALPELADPELVLEINQEGGALGEVPAPELARIIRPRMREILHLARQSVDETLGPLEIQVNRVVLTGGGALLRGTDLLARQQYGLPVRVGKPQGVSGLTDVVASPAHAAAVGLVRYGASLPLKPQEAKRIREKPEDKPKGEGLWARIKEFLSNLF | failed
MIIETERLLLRPFNEQDVDALYLMNSNPAMLKYIPTAPFTDREQARELFHNVILQDYQQRGFGRWAVEHKADNRVIGFCGPKFIPEFNEVEIGYRYFPEYWGKGIGTEAAEAALSVFPQFGIKQTIALILEGNLGSETVAKRVGMYWREHSEFMGHK | failed
MIIGLLNQKGGVGKTTLSVNLAASFARTGARVLLIDVDPQGSALDWAAAREGAPLFPVVGLPRATVHKEITQIGHNYDHIIIDGPPRVTDLARSALMASDFVLIPVQPSPYDIWAADGIVKLIDEARVYKENLKSAFVINRKIVNTAIGRDVGEALGVYPVHVLSANVAQRVIFAEAATQGKTVYEVDKQGLAAAEIEAVAAEIKELAQLEHHHHHH | not failed
MIILIWMVIMRHVFRLNLWFVFLATFLFTPYLYAEPIKEPSRPKIALVLAGGGAKGAAHIGVLKALEELNIPIDIITGTSMGAYVGGLYATGKSASEIEAYLHTVDWYSGYQDEVGREEKNSRDKKYEDRFAINPSLGIRKEGVKSPKSAIQGQNMLKILRETSGNPVSVASFDDFPIRYRSVATDIVSMEEVVIDHGLLVDAMMASMSVPGALPPYEFEDKLLIDGGVTNNMPVELAKEMGADIVIAVDISSNYMTKEQIGSLFDVASQLTNFMVKRSTQEQAEFLTDKDILLQPRVGDIETTDFSSMPRAYQEGYDTVMTLKSRLQSLAVAPNEYAQYQNKIKQQSANVRLAQGAIIDKVEVENRSHYESDKLERFIQFEQGTLLSSDYIEDKIHALYATNRFETITYLVEEDNNENVLKVTAKEKEWGPNYLNFRFFLEEDFDTHSQYGLGASINFTDLNDYGAELRTNVELGTDKIFDATIHYPFYLNHHFFVQSNMMYSDKKRSISTSSLEDKEPNSSMSFYPVNLRDFTVDALFGVEATKDQQLKTGILYARGSHELTGLSAYGRTEYERLGATLEYNFDSLDSISLPTHGSLINARYLYAFDKVNSRDVEGSDHSEQYIDEFTAEALFARSIARHTFISSAEYGITNSDDYLVPVNPIELGGFNHLSGLPRNSLIGANKIYGRLTYRYRWFENDLGMFKTAVYLGASAEYGGLWSMKSTDISSAPLIFSGSLFGGIDTPIGPIILSYGRAENGLDSVYLIVGNVE | failed
MIINITILEDNESDFITLSDSIKKWAANTGILINIIWLNSYKKFIKSLPTLKCDLFFSDIELNCNNSFTGIDACKQLRESGYTGIIIFLTAFKEYVFDGYDVQAFNYLLKPINYGTINNCLDKFIHLFSLEHHHHHH | not failed
MIIRGIRGARINNEIFNLGLKFQILNADVVATKKHVLHAINQAKTKKPIAKSFWMEILVRASGQRQIHEAIKIIGAKDGNVCLICEDEETFRKIYELIGGEIDDSVLEINEDKERLIREIFKIRGFGNVVERVLEKIALIELKKE | not failed
MIISLIAALAADRVIGMENAMPWHLPADLAWFKRNTLNKPVIMGRKTFESIGRPLPGRLNIVISSQPGTDERVTWAASIEEALAFAGNAEEVMVMGGGRVYKQFLDRANRMYLTHIDAEVGGDTHFPDYEPDEWESVFSEFHDADEANSHSYCFEILERR | not failed
MIISNKSPISINNDPWEAYNDILEHNQLTLSNIEFTTTNLCNMRCSHCAVGYTLQTKDPDPLPMDIIYRRLDEIPNLRTLSITGGEPMFSKKSIKNVVKPLLKYAKHRGIYVQMNSNLTLPQDRYLDIAEY | failed
MIIVHHLNNSRSQRILWLLEELGLPYEIKRYQRDPKTNLAPPELKAIHPLGKSPVIEDGPHVVIESGAIVDYLIRRHGDGRLQPDPASATYDEYVQWLHFAEGSAILPLMLNLYVGRLGDAGAPLHPRIHSELANYLGYLNEALGLTPYLLGDELSGADIQMSFIGEFAKMQGMLQPHPNLAAWVQRCQERPAYRQALEQGGEYSFAK | failed
MIIVYTTFPDWESAEKVVKTLLKERLIACANLREHRAFYWWEGKIEEDKEVGAILKTREDLWEELKERIKELHPYDVPAIIRIDVDDVNEDYLKWLIEETKK | not failed
MIIYNIVYPMILILLYEYLAVNYFKGDKSITSSYYYVIVLIPFFIFTNIITMAYVAKDESLSKTAYRFLSAPIDNSAIVLSKIISCTVISWGCSLILLIISKVLLSVNFEGSTLKILILFFTENFMAAAIGIFLGIVMKNFKTIKGILNIPISILGVLGGCFFPVGALGRTFEKVSYISPFTWINRGIISEVYDKSQTILVGTILVTLVFGIIFSIGASILFNKEVFL | failed
